Measurements reported in publication PMC7549315.

Biological target: GFP-SAPwt (SAP domain of SAF-A) (UniProt Q00839 8-42)
Assay: EMSA

GFP-SAPwt (SAP domain of SAF-A), sequence (Q00839 8-42): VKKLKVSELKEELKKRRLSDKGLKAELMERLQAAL

B1: AT-rich SAR DNA (dsDNA)
DNA 1: AATTCAGAAAATAATAAAATAAAACTAGCTATTTTATATTTTTTC
DNA 2: GAAAAAATATAAAATAGCTAGTTTTATTTTATTATTTTCTGAATT
- Kd: 16.5 µM
